B1: GST-AcrIIA17_Sga (other)
chain: MKISVDSEKLLNEAINDFDIFGEDFNVYAIYSYREDYDFEYISDYVDADEPTRDEFETEEDYQEVMKDFKENLDSLKFTKHKKMTIADLVHELWEQNRIF
notes: also called GST-AcrIIA7_Sga
B2: GST-AcrIIA19_Ssim (other)
chain: MKLIVEVEETNYKNLVNYTKLTNESHNILVNRLISEYITKPYELRLDLSERYSNRDLIEFKFMLIEYCKEALQDIKELANSDEAYETDEAFEAVFRQLFEEVISNPDTVLKAFHSYTSFLEENK
B3: GST-AcrIIA16_Lmo (other)
chain: MGYIGTKRSERSQDAIEDYEVPLNHFNKDLIQAFIDENEAYDTLKTKKVRLWKFVAPRAGATSWHHTGTYYNKTDHYSLEKVADELLQNGDEWEEQFKAYVKEEQETATSEPVFLSVIKVQIWGGSMKRPKLVGHEVVMGVKKEGWLHAVSKATQSKYKLSANKVEMQKHYSLEDYSALTKDFPEFKAQKRAINKKMKEMYN

Legend:
Myc-tagged Apo-SpyCas9 = target: T1, Myc-tagged Apo-SpyCas9 (Streptococcus pyogenes, UniProt Q99ZW2 1-1368); test: GST-Acr immunoprecipitation from P. aeruginosa expressing Myc-tagged Apo-SpyCas9 without sgRNA; immunoblot (FIGS. 3D, 7C)
T1 construct: not shown: 3xMyc tag at the C-terminus

Myc-tagged SpyCas9-sgRNA [1] = target: T2, Myc-tagged SpyCas9-sgRNA (Streptococcus pyogenes, UniProt Q99ZW2 1-1368); test: discussion of the co-immunoprecipitation results; state of SpyCas9 not named there
T2 construct: not shown: 3xMyc tag at the C-terminus

Myc-tagged SpyCas9-sgRNA [2] = target: T2, Myc-tagged SpyCas9-sgRNA; test: co-immunoprecipitation of Myc-tagged SpyCas9-sgRNA from P. aeruginosa co-expressing GST-Acr; immunoblot and Coomassie gel (FIG. 3B)

T2 sequence (Q99ZW2 whole entry): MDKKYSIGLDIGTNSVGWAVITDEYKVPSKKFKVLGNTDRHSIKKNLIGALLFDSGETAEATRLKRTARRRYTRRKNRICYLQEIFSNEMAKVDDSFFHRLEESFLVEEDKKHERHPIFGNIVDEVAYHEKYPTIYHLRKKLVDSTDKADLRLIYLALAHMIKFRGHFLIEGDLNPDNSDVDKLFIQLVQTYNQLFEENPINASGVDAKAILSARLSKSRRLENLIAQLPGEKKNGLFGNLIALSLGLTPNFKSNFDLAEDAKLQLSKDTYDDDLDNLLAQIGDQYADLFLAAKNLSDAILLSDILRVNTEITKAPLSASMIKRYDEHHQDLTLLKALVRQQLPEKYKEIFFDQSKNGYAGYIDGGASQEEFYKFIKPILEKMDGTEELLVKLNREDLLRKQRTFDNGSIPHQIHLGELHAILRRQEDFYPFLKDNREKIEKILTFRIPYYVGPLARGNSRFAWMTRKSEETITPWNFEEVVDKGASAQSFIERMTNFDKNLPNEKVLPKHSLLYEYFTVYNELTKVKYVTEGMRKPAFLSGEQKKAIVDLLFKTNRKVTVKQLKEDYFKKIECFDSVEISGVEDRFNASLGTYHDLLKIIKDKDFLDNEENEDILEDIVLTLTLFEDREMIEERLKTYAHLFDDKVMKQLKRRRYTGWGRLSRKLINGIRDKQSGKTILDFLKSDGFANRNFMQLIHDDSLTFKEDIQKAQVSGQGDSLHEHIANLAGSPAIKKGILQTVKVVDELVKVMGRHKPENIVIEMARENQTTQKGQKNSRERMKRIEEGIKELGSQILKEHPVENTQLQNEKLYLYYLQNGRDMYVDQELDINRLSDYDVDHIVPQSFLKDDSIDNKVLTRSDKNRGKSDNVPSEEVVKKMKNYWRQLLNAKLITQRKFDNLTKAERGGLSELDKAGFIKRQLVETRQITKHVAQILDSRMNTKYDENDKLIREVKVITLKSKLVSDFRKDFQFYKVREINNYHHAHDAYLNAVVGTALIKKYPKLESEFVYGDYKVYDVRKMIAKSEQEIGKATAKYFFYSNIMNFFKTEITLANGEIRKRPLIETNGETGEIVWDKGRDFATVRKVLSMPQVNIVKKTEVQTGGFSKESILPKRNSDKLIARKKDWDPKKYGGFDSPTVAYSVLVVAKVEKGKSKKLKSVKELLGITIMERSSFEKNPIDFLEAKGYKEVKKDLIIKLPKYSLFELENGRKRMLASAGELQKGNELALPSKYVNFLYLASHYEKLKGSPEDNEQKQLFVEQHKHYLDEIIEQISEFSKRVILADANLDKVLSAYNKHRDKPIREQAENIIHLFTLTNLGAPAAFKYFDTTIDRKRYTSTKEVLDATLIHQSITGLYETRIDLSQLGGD
T1 sequence (Q99ZW2 whole entry): as above

| Binder | binding result (Myc-tagged Apo-SpyCas9) | binding result (Myc-tagged SpyCas9-sgRNA [1]) | binding result (Myc-tagged SpyCas9-sgRNA [2]) |
| --- | --- | --- | --- |
| B1 | binds | binds | – |
| B2 | binds | binds | – |
| B3 | binds | – | binds |
